The record followed here is article PMC10949515 (Journal of Virology, 2024).

Some results are limits rather than exact numbers.

Broadly, the Kd is a measure of binding affinity in units of concentration. Higher therefore signals lower affinity.

Sequences and labels used below:
B2: human FLNB C-terminal fragment R22–24, His6-tagged (domain or fragment, UniProt O75369 2282-2601, looked up)
chain: APSDDARRLTVMSLQESGLKVNQPASFAIRLNGAKGKIDAKVHSPSGAVEECHVSELEPDKYAVRFIPHENGVHTIDVKFNGSHVVGSPFKVRVGEPGQAGNPALVSAYGTGLEGGTTGIQSEFFINTTRAGPGTLSVTIEGPSKVKMDCQETPEGYKVMYTPMAPGNYLISVKYGGPNHIVGSPFKAKVTGQRLVSPGSANETSSILVESVTRSSTETCYSAIPKASSDASKVTSKGAGLSKAFVGQKSSFLVDCSKAGSNMLLIGVHGPTTPCEEVSMKHVGNQQYNVTYVVKERGDYVLAVKWGEEHIPGSPFHVTV
notes: also called R22–R24; FLNB R22-24

The target in series [1] is T1, human FLNB C-terminal fragment R23–24, His6-tagged (human, UniProt O75369 2379-2601).
T1 construct: also called R23–R24; FLNB R23-24
T1 sequence (looked up): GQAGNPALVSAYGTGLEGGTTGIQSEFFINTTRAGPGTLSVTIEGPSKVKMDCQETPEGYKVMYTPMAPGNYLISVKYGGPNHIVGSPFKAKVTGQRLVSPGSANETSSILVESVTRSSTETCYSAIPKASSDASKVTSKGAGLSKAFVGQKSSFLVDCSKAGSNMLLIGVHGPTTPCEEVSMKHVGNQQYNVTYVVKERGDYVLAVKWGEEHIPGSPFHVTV
The series is described as follows: ITC. Conditions: both partners purified.

The target in series [2] is B2. Description: ITC. Conditions: both partners purified.
Series [3] deals with T2, FLNB R22–24 dimerization-deficient mutant (M2544E, L2546D), His6-tagged (human, UniProt O75369 2282-2601, M2544E | L2546D).
T2 construct: also called mR22–R24; mR22–24
T2 sequence (looked up): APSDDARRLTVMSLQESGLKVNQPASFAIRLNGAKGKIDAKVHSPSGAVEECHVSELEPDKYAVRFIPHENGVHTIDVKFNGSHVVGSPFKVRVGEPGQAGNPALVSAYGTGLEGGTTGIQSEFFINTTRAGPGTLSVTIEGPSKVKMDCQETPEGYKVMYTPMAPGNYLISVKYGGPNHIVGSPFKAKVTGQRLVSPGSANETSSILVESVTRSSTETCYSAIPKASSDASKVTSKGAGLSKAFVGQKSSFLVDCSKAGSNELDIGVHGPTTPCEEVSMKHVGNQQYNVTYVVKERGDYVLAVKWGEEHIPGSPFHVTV
The series is described as follows: SEC. Conditions: both partners purified.

Series [4] deals with the molecule itself.

B1: C4 N-terminal residues 1–149, His6-tagged (domain or fragment)
chain: MDTIKIFNHGEFDTIRNELVNLLKVVKWNTINSNVTVSSTDTIDISDCIREILYKQFKNVRNIEVSSDISFIKYNRFNDTTLTDDNVGYYLVIYLNRTKSVKTLIYPTPETVITSSEDIMFSKSLNFRFENVKRDYKLVMCSISLTYKP
notes: also called C4-N 1–149
For the molecule B1, the results for the Kd in series [1] and in series [2] were below 1 nM and 41.5 ± 30 nM, respectively. The binding result in series [3] is “binds”.
Regarding B2, the binding result in series [4] is reported as “binds”.
